Laboratory results reported in paper PMC3121763.

Experiments:
[1] = target: 6xHis-tagged Gifsy-1 prophage repressor GfoR (Salmonella enterica serovar Typhimurium strain ATCC14028, prophage Gifsy-1); assay: SEC; Sephadex G75 column in IPE buffer (Tris-HCl 20 mM pH 8, NaCl 500 mM, Igepal 0.1%, imidazole 250 mM); about 10 ug of Ni-NTA-purified repressor (cells grown without arabinose) or co-expressed, co-purified repressor-antirepressor complex (with arabinose); calibrated with alpha-chymotrypsin, ovalbumin and BSA; fractions on SDS gel
[2] = system: T1, GtgR (Gifsy-2 phage repressor; also written GftR) (Salmonella enterica ATCC14028, Gifsy-2 prophage), ORF:1b72f8f1; assay: EMSA; conditions: 20 mM Tris-HCl pH 7.5, 50 mM NaCl, 0.2 mM EDTA (5x stock in Methods: 1 mM), 1 mM MgCl2, 5% glycerol, PMSF, 50 ug/mL sonicated salmon sperm DNA; room …
T1 sequence: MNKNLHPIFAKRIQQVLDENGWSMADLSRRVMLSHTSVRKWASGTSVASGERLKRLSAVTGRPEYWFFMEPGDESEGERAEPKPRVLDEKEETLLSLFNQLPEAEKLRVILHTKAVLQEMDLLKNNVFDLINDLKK

“6xHis-tagged Gifsy-1 prophage repressor GfoR (natural protein)” gave a stoichiometry N [1] of 2.

“GTTCGCCGATGCTCATTTGAGTCATGTGGTTACTGATTTTGATTTTTAATTGGTTGTCCATTTGGCTCTCCAGTTCTACGAGTTGGTAGCTGGAGATTATCACGTAAAACTTTAGGTTCCAACAAAAATCAATCTAATAGTTCCAATGAATAAAGAAACTGAAGGTTGTAAAATGTGAATATGAACAAAAATCTTCATCCCATTTTCGCCAAGCGTATCCAGCAAGTTCTGGATGAGAACGGCTGGTCTATGGCTGACCTCTCACGG (double strand) [Gifsy-2 right operator fragment (267 bp)]” was tested, and the binding [2] was “binds”.

In the case of “3xFLAG-tagged Gifsy-1 antirepressor GfoA (natural protein)”, the stoichiometry N (GfoA per GfoR (2:2)) [1] is reported as 1.
